Results reported in patent US20260085122A1 (BEONE MEDICINES I, published 2026).
One block for each binder: values may come before it.

How the values were obtained:
[1] = target: 2Ig-B7H3 (Cat: B73-H5253) (UniProt Q5ZPR3 29-245); assay: SPR (Biacore 8K, 25 C), B7H3 captured by anti-human IgG, VHH as analyte, 1:1 model
Description: (§1) 4Ig-B7H3 (Cat: 11188-H02H) and 2Ig-B7H3 (Cat: B73-H5253) proteins were coupled onto a CM5 Biocore sensor derivatized via amine coupling with anti-human IgG antibody (Cat: 29234600). The VHH fragments were then flowed through at a rate at 40 μl/min. Association of VHH to B7H3 proteins was monitored for 120 seconds and disassociation of VHH in buffer 1×HBS (0.01 M HEPES, pH 7.4, 0.15 M NaCl, 3 mM EDTA, 0.05% v/v surfactant P20) was monitored for more than 120 seconds.
(§2) Ka and Kd were determined by fitting the real-time sensorgram to a 1:1 binding model using Biacore Insight Evaluation software. Binding disassociation equilibrium constants (KD) were calculated from kinetics rates as follows: […]

[2] = target: T1, 4Ig-B7H3 (Cat: 11188-H02H) (human); assay: as above
T1 construct: also called B7H3-4IG; 4Ig-B7H3 proteins
T1 sequence (Q5ZPR3 29-461): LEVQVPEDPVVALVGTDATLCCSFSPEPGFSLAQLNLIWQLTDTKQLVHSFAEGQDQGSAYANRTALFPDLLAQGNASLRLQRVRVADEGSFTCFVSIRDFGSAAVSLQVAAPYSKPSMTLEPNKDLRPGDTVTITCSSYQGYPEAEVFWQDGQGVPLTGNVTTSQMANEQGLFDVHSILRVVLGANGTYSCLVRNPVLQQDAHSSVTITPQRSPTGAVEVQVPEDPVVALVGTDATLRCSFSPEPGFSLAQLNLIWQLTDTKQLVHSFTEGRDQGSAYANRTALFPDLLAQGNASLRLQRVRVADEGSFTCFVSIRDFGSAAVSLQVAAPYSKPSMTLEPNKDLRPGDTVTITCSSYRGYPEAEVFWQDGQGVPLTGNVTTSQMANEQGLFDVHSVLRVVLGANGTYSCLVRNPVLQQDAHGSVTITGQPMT
Description: as §1, §2

Sequence of 2Ig-B7H3 (Cat: B73-H5253) (Q5ZPR3 other isoform, or with tags, fused parts or gaps): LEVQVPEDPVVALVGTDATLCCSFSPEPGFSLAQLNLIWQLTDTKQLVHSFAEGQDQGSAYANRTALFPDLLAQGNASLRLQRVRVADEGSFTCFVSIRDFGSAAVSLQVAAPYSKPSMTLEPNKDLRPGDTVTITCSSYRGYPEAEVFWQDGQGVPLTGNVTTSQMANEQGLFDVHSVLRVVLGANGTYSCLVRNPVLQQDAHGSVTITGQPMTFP

Kd [1]: 43.3 nM | koff [1]: 0.129 s⁻¹ | kon [1]: 2.99e+06 M⁻¹ s⁻¹ | Kd [2]: 3.89 nM | koff [2]: 0.0096 s⁻¹ | kon [2]: 2.47e+06 M⁻¹ s⁻¹
B1: VHH1_C002 (VHH)
VHH: EVQLLESGGGLVQPGGSLRLSCAASGFTFSDYHMSWVRQAPGKGLEWVSGILNTGLSPTYAATVTGRFTISRDNSKNTLYLQMNSLRAEDTAVYYCAQGYYRATPSQANRGQGTLVTVSS
notes: Monovalent VHH fragment with C-terminal 6xHis-tag, no Fc

Kd [1]: 94.1 nM | koff [1]: 0.27 s⁻¹ | kon [1]: 2.87e+06 M⁻¹ s⁻¹ | Kd [2]: 7.41 nM | koff [2]: 0.00677 s⁻¹ | kon [2]: 914000 M⁻¹ s⁻¹
B2: VHH1_C001 (VHH)
VHH: EVQLVESGGGLVQPGGSLRLSCAASPRTFQTYFMGWFRQAPGKELEWVSVINWSGGTSYYKDSVKGRFTISRDNSKNTLYLQMNSLRAEDTAVYYCAAKGSGTYDREGEYDYWGQGTLVTVSS
notes: as for B1
